# Assay results from patent US20230374132A1 (Innovent, published 2023).
# Numbering of substitutions follows the chain as printed. Names and notes keep the numbering of the source. Like-named read-outs stand apart in the source and are kept apart here.
# B1: hzsp34.8 (antibody, human IgG1, lambda, L234A L235A, V domains shown)
# VH: EVQLVESGGGLVQPGGSLKLSCAASGFTFNTYAMNWVRQASGKGLEWVGRIRSKYNNYATYYADSVKDRFTISRDDSKSTLYLQMNSLKTEDTAVYYCARHGNFGNSYVSWFAYWGQGTTVTVSS
# VL: QAVVTQEPSLTVSPGGTVTLTCRSSTGAVTTSNYANWFQQKPGQAPRTLIYGTNKRAPWTPARFSGSLLGGKAALTLLGAQPEDEAEYYCALWYSNLWVFGQGTKLTVLG
# notes: IgG1 L234A L235A, lambda
# B2: hzsp34.9 (antibody, human IgG1, lambda, L234A L235A, V domains shown)
# VH: B1 VH with N106Q
# VL: B1 VL
# notes: IgG1 L234A L235A, lambda
# B3: hzsp34.10 (antibody, human IgG1, lambda, L234A L235A, V domains shown)
# VH: B1 VH with G49A, N106Q
# VL: B1 VL
# notes: IgG1 L234A L235A, lambda
# B4: hzsp34.14 (antibody, human IgG1, lambda, L234A L235A, V domains shown)
# VH: B1 VH with N106Q
# VL: B1 VL with F38V, Y51G, W59G, T60V
# notes: IgG1 L234A L235A, lambda
# B5: hzsp34.15 (antibody, human IgG1, lambda, L234A L235A, V domains shown)
# VH: B1 VH with G49A, N106Q
# VL: B1 VL with F38V, Y51G, W59G, T60V
# notes: IgG1 L234A L235A, lambda
# B6: hzsp34.17 (antibody, human IgG1, lambda, L234A L235A, V domains shown)
# VH: B1 VH with S79N
# VL: B1 VL with F38V, T48G, Y51G, W59G, T60V
# notes: IgG1 L234A L235A, lambda
# B7: hzsp34.91 (antibody, human IgG1, lambda, L234A L235A, V domains shown)
# VH: B1 VH with N106G
# VL: B1 VL with F38V, T48G, Y51G, W59G, T60V, G71D
# notes: CDR mutant of hzsp34.24; IgG1 L234A L235A, lambda
# B8: hzsp34.92 (antibody, human IgG1, lambda, L234A L235A, V domains shown)
# VH: B1 VH with N106Q, S107R
# VL: B1 VL with F38V, T48G, Y51G, W59G, T60V, G71D
# notes: as for B7
# B9: hzsp34.93 (antibody, human IgG1, lambda, L234A L235A, V domains shown)
# VH: B1 VH with N106Q, Y108A
# VL: B1 VL with F38V, T48G, Y51G, W59G, T60V, G71D
# notes: as for B7
# B10: hzsp34.94 (antibody, human IgG1, lambda, L234A L235A, V domains shown)
# VH: B1 VH with N106Q, V109A
# VL: B1 VL with F38V, T48G, Y51G, W59G, T60V, G71D
# notes: as for B7
# B11: hzsp34.98 (antibody, human IgG1, lambda, L234A L235A, V domains shown)
# VH: B1 VH with G102Y, N103G, N106Q
# VL: B1 VL with F38V, T48G, Y51G, W59G, T60V, G71D
# notes: as for B7
# B12: hzsp34.99 (antibody, human IgG1, lambda, L234A L235A, V domains shown)
# VH: B1 VH with F104A, G105Y, N106Q
# VL: B1 VL with F38V, T48G, Y51G, W59G, T60V, G71D
# notes: as for B7
# B13: hzsp34.100 (antibody, human IgG1, lambda, L234A L235A, V domains shown)
# VH: B1 VH with N106G, S107R
# VL: B1 VL with F38V, T48G, Y51G, W59G, T60V, G71D
# notes: as for B7
# B14: hzsp34.101 (antibody, human IgG1, lambda, L234A L235A, V domains shown)
# VH: B1 VH with N106Q, Y108A, V109A
# VL: B1 VL with F38V, T48G, Y51G, W59G, T60V, G71D
# notes: as for B7
# Columns and labels:
# Assay in all cases: BLI, antibody on sensor
# [1] = biological target: T1, cynomolgus monkey CD3 E&D complex protein (Sino Biological Inc., CT032-00323H) (cynomolgus monkey, UniProt Q95LI5 22-117; Q95LI8 22-105)
# T1 construct: bought heterodimer
# T1 sequence (Q95LI5 22-117, chain 1 of 2): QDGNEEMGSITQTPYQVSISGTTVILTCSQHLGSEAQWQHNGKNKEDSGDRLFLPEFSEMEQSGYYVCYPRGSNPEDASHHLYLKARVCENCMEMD
# T1 sequence (Q95LI8 22-105, chain 2 of 2): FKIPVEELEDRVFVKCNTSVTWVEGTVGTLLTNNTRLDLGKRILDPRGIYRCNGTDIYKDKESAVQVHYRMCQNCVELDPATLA
# Experimental: (§1) 100 μl SD buffer, various antibodies, human CD3 E&D complex protein (Sino Biological Inc., CT026H0323H), and cynomolgus monkey CD3 E&D complex protein (Sino Biological Inc., CT032-00323H) were added into 96-well black polystyrene semi-quantitative micro-well plate (Greiner, 675076) respectively. Fortebio Octet Red 96 was used for detection, and the sensor position was selected according to the sample position. The setting parameters of the instrument are as follows: operation steps: Baseline, Loading-1 nm, Baseline, Association and Dissociation; the operation time of each step depends on the speed of sample association and dissociation. The rotational speed is 1000 rpm and the temperature is 30° C. ForteBio Octet analysis software was used to analyze KD value.
# [2] = biological target: T2, human CD3 E&D complex protein (Sino Biological Inc., CT026H0323H) (human, UniProt P07766 23-126; P04234 22-105)
# T2 construct: bought heterodimer; also called human CD3 protein (CT026H0323H)
# T2 sequence (P07766 23-126, chain 1 of 2): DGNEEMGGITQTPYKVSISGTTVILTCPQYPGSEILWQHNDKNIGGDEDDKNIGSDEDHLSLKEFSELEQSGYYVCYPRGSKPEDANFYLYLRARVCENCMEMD
# T2 sequence (P04234 22-105, chain 2 of 2): as the sequence (Q95LI8 22-105, chain 2 of 2) above, with V5I, K15N, V20I, T32S, N33D, N34I, A64T, N74S, L83V counted along it
# Experimental: as §1
# [3] = biological target: T3, human CD3E&G complex (Sino Biological Inc., CT041-H0305H) (human, UniProt P07766 23-126; P09693 23-116)
# T3 construct: bought heterodimer; also called human CD3E&G antigen
# T3 sequence (P07766 23-126, chain 1 of 2): as the sequence (P07766 23-126, chain 1 of 2) above
# T3 sequence (P09693 23-116, chain 2 of 2): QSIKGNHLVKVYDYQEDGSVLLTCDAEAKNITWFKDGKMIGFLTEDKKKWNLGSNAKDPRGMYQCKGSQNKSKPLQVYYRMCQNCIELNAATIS
# [4] = biological target: T2, human CD3 E&D complex protein (Sino …); remark: listed apart in the source
binder,measurement,setting,value
B1,binding result,[1],no binding
same,binding result,[2],no binding
B2,binding result,[1],no binding
same,binding result,[2],no binding
B3,binding result,[1],no binding
same,binding result,[2],no binding
B4,Kd,[1],0.195 nM
same,koff,[1],9.49e-05 s⁻¹
same,kon,[1],488000 M⁻¹ s⁻¹
same,Kd,[2],2.41 nM
same,koff,[2],0.00159 s⁻¹
same,kon,[2],661000 M⁻¹ s⁻¹
B5,Kd,[1],1.75 nM
same,koff,[1],0.00115 s⁻¹
same,kon,[1],658000 M⁻¹ s⁻¹
same,Kd,[2],3.13 nM
same,koff,[2],0.00202 s⁻¹
same,kon,[2],644000 M⁻¹ s⁻¹
B6,Kd,[1],0.514 nM
same,koff,[1],0.000915 s⁻¹
same,kon,[1],1.78e+06 M⁻¹ s⁻¹
same,Kd,[2],0.51 nM
same,koff,[2],0.00206 s⁻¹
same,kon,[2],4.04e+06 M⁻¹ s⁻¹
B7,Kd,[3],8.53 nM
same,koff,[3],0.00195 s⁻¹
same,kon,[3],228000 M⁻¹ s⁻¹
same,Kd,[4],1.88 nM
same,koff,[4],0.000528 s⁻¹
same,kon,[4],280000 M⁻¹ s⁻¹
B8,Kd,[3],4.82 nM
same,koff,[3],0.00101 s⁻¹
same,kon,[3],210000 M⁻¹ s⁻¹
same,Kd,[4],0.772 nM
same,koff,[4],0.0002 s⁻¹
same,kon,[4],259000 M⁻¹ s⁻¹
B9,Kd,[3],3.42 nM
same,koff,[3],0.000836 s⁻¹
same,kon,[3],245000 M⁻¹ s⁻¹
same,Kd,[4],0.976 nM
same,koff,[4],0.00026 s⁻¹
same,kon,[4],266000 M⁻¹ s⁻¹
B10,Kd,[3],4.63 nM
same,koff,[3],0.000821 s⁻¹
same,kon,[3],177000 M⁻¹ s⁻¹
same,Kd,[4],0.977 nM
same,koff,[4],0.0002 s⁻¹
same,kon,[4],205000 M⁻¹ s⁻¹
B11,binding result,[3],no binding
same,Kd,[4],9.15 nM
same,koff,[4],0.00184 s⁻¹
same,kon,[4],201000 M⁻¹ s⁻¹
B12,binding result,[3],no binding
same,Kd,[4],9.63 nM
same,koff,[4],0.0011 s⁻¹
same,kon,[4],114000 M⁻¹ s⁻¹
B13,Kd,[3],8.33 nM
same,koff,[3],0.00171 s⁻¹
same,kon,[3],205000 M⁻¹ s⁻¹
same,Kd,[4],1.13 nM
same,koff,[4],0.000276 s⁻¹
same,kon,[4],243000 M⁻¹ s⁻¹
B14,Kd,[3],4.3 nM
same,koff,[3],0.000636 s⁻¹
same,kon,[3],148000 M⁻¹ s⁻¹
same,Kd,[4],3.77 nM
same,koff,[4],0.00082 s⁻¹
same,kon,[4],217000 M⁻¹ s⁻¹
